Measured values as given in paper PMC3531425, “Low Resolution Solution Structure of HAMLET and the Importance of Its Alpha-Domains in Tumoricidal Activity” (PLoS ONE, 2012).

How the values were obtained:
[1] = Solubility of biotinylated peptide (remark); type: physicochemical; conditions: added at 12 µM instead of 105 uM
[2] = test system: A549 cells; assay: Ca^2+ flux, Fluo-4 NW calcium assay, fluorometry; type: cell-based, human
Description: (§1) To quantify the ion fluxes, fluorometry was measured in a plate reader (TECAN infinite F200, Tecan Group, Switzerland). For calcium fluxes measurement, the Fluo-4 NW calcium assay kit (Invitrogen) was used. For K^+ fluxes, the FluxOR™ potassium ion channel assay (Invitrogen) was used according to the manufacturer's instructions but component E was excluded. Briefly, cells were incubated with FluxOR™, which is a Tl^+ indicator. An increase in fluorescence signal corresponds to an influx of Tl^+, indicating opening of potassium channels, which was measured at 535 nm after excitation at 485 nm in the TECAN infinite plate reader. Given the driving force for K^+ flux across the plasma membrane this corresponds to K^+ efflux. Calcium and potassium fluxes was measured in 20 000 A549 cells plated in a 96-well plate. Sodium was measured in 100 000 Jurkat cells using the CoroNa Green Sodium Indicator (Invitrogen).

[3] = test system: Jurkat cells; assay: Na^+ flux, CoroNa Green Sodium Indicator, fluorometry; type: cell-based, human
Description: as §1

[4] = test system: A549 cells; assay: K^+ flux, FluxOR potassium ion channel assay (Tl^+ influx), fluorometry; type: cell-based, human
Description: as §1

[5] = test system: tumor cells; conditions: molecular range where the complex kills tumor cells; ref [10], [17]; cited from earlier work
From the text: The structural basis for HAMLET's tumoricidal activity is not fully understood. […] Since native α-lactalbumin lacks these activities, we hypothesized that the partially unfolded and ... || Recent Far-UV CD spectroscopy studies have shown that the secondary structural features in HAMLET are similar to those in α-lactalbumin [10], which include an alpha1 and alpha2 domain, consisting of the amino acid residues K1-Q39 and L81-L123, respectively, as well as the beta domain, formed by the residues A40-F80 (Fig. 3A–B). […] As described above the alpha2 domain forms a part of the globular domain (residues L81 to W104) as well as the C-terminal tail with t ...

[6] = test system: lung carcinoma or leukemia cells; assay: Tumor cell death (ATP level, PrestoBlue), cell line not given; type: cell-based, human; conditions: 3 hours; HAMLET (positive control) or peptide mixed with sodium oleate; cell line not given
Description: A549 human lung carcinoma cell line and the Jurkat human acute T-cell leukemia cell line (obtained from ATCC, Manassas, VA, USA) were cultured in RPMI-1640 with non-essential amino acids (1∶100), 1 mM sodium pyruvate (all from PAA, Pasching, Austria), […] Gentamicin (Gibco, Paisley, UK) and 5% fetal calf serum (FCS) at 37°C, 5% CO2. Cells (5*10^5 cells/ml for A549 cells, 1*10^6 cells/ml for Jurkat cells) in suspension were incubated with either […] or peptide-oleate mixtures in serum-free RPMI-1640 at 37°C, 5% CO2. 5% FCS was added after 1 hour. Cell death was quantified by ATP level measurement (ATPlite Kit, PerkinElmer, Waltham, MA, Infinite F200, Tecan Group Ltd., Männedorf, Switzerland) and by using PrestoBlueTM Cell Viability Reagent (Invitrogen, Carlsbad, CA).

[7] = test system: A549 lung carcinoma cells; assay: Cell morphology by phase holographic imaging and transmission DIC; type: cell-based, human; conditions: adherent A549 cells; HAMLET or peptide-oleate mixture; images every 15 minutes
Description: For cellular uptake assays, A549 lung carcinoma cells were grown overnight on 8-well chamber slides (Nalge Nunc, Rochester, NY). Cells were incubated 1 hour with 35 μM biotinylated peptide with or without 175 μM sodium oleate (Sigma) in serum free RPMI media, followed by fixation (4% paraformaldehyde) and permeabilization (0.25% Triton X-100, 5% FCS in phosphate-buffered saline). Peptides were visualized by incubation with streptavidin-Alexa568 (Molecular Probes) and Wheat Germ Agglutinin (WGA) (Molecular Probes) was used to visualize plasma and nuclear membranes. Images were captured on a LSM510 META confocal microscope (Carl Zeiss, Jena, Germany) with pinhole settings corresponding to one airy unit. Quantification of fluorescence intensities was performed with the ImageJ software. The HoloMonitorTM M3 digital holographic microscope (Phase Holographic Imaging AB, Lund, Sweden) records 3D information of cells using interfering wave fronts induced by the exposure to a 0.8 mW HeNe laser (633 nm), resembling a Mach-Zender interferometer where the cells, placed in one of the interfering wave fronts, induce a phase difference between the two beams [26]-[28]. The interference pattern (hologram) is recorded on a digital sensor and is used to reconstruct the amplitude and phase of the object as described, [30]. […]

[8] = Small angle X-ray scattering, state in solution; type: physicochemical; conditions: 2.5 and 6.5 mg/ml in phosphate-buffered saline, 15 °C
From the text: Small angle X-ray scattering (SAXS) data for HAMLET were collected at the German Electron Synchrotron (DESY) of the EMBL Hamburg using the X33 SAXS camera, [19] located on a bending magnet (sector D) on the storage ring DORIS III. Pilatus 1 M pixel detector (67×420 mm^2) that operates in single photon counting mode was used. A sample - detector distance of 2.4 m which covers the range of momentum transfer 0.1<s<4.5 nm^−1 (s = 4π sin(q)/λ, where q is the scattering angle and λ = 0.15 nm is the X-ray wavelength) was utilized. The calibration of the s-axis was done by the scattering pattern of Silver-behenate salt (d-spacing 5.84 nm). For each sample measurement the scattering from the buffer was measured before and after. The average scattering for the before and after buffer measured was calculated and it is used for background subtraction for each sample. In order to assess and remove any concentration-dependant inter-particle effects for HAMLET, the protein concentrations 2.5 and 6.5 mg/ml in phosphate-buffered saline were used for the measurement. Automated sample-changing robot was used for injecting the protein as well as the buffer samples at the SAXS station X33 [20]. […]
By comparing the forward scattering from the reference solution of bovine serum albumin (BSA), the molecular mass of HAMLET was calculated as described in [18]. […]

[9] = test system: glioblastomas, papillomas and bladder cancer; conditions: ref [1]–[3]; cited from earlier work
From the text: Healthy, differentiated cells are much less sensitive to HAMLET and toxic effects on healthy tissues have not been observed in tumor models.

In the case of “GLFQISNKLWAKSSQ [Peptide 6, 15-amino-acid peptide of α-lactalbumin library]”, the Solubility [1] is reported as “lower solubility”, the “Ca^2+ flux, + oleate” value ([2]; peptide mixed with sodium oleate, Fluo-4 fluorescence) is reported as “weaker Ca^2+ flux” and the “Ca^2+ flux, - oleate” value ([2]; peptide without sodium oleate, Fluo-4 fluorescence) is reported as “No”. For the same molecule, the “Na^+ flux, + oleate” value ([3]; peptide mixed with sodium oleate, CoroNa Green fluorescence) was “Weak Na^+ fluxes”, the “K^+ flux, + oleate” value ([4]; peptide mixed with sodium oleate, FluxOR fluorescence) was “No” and the “K^+ flux, - oleate” value ([4]; peptide without sodium oleate, FluxOR fluorescence) was “No”.

For CCCCCCCC/C=C\CCCCCCCC(=O)O [oleic acid], the “Toxicity of oleic acid alone” value [5] is given as “not toxic”.

B1: HAMLET (protein)
chain: KQFTKCELSQLLKDIDGYGGIALPELICTMFHTSGYDTQAIVENNESTEYGLFQISNKLWCKSSQVPQSRNICDISCDKFLDDDITDDIMCAKKILDIKGIDYWLAHKALCTEKLEQWLCEKL
With B1 the “Reduction of cell viability” value [6] was 90%, the “Morphological change by holographic imaging” value [7] was “increase in cellular optical thickness and a reduction in adherent surface area after 30 minutes, followed by cell detachment at later time points” and the “Oligomeric state in solution” value ([8]; SAXS forward scattering vs BSA reference) was “monomeric”. The “Protein aggregation (Guinier plot)” value ([8]; SAXS) was “no protein aggregation”, the “Ca^2+ flux, substance alone” value ([2]; HAMLET or sodium oleate alone, Fluo-4, mean of at least two experiments) was “rapid and sustained” and the “Na^+ flux, substance alone” value ([3]; HAMLET or sodium oleate alone, CoroNa Green, mean of at least two experiments) was “Na^+ fluxes”. The “K^+ flux, substance alone” value ([4]; HAMLET or sodium oleate alone, FluxOR, mean of at least two experiments) was “rapid and sustained” and the “Therapeutic efficacy in vivo” value [9] was “therapeutic efficacy”.
